Test results reported in article PMC11602160.

Assays:
[1] = target: N_(IDR1-core), N variant with IDR1, RBD and DD in which the 67-residue linker is replaced by a 12-residue GSA-linker (SARS-CoV-2)
[2] = target: N_(IDR1-core), N variant with IDR1, RBD and DD in which the 67-residue linker is replaced by a 12-residue GSA-linker (SARS-CoV-2); assay: ITC; iTC200, 10°C; […]; 20 mM Tris-HCl pH 8.0, 150 mM NaCl, 5% glycerol; […]

| Substance | stoichiometry N [1] | Kd [2] |
| --- | --- | --- |
| N_(IDR1-core), N variant with IDR1, RBD and DD in which the 67-residue linker is replaced by a 12-residue GSA-linker (domain or fragment) | 2 |  |
| UPF2S, UPF2 variant comprising the MIF4G3 and the U1BD domains (from UniProt Q9HAU5 761-1227) (domain or fragment) |  | 2900 nM |
